Publication PMC6974936

Legend:
[1] = biological target: N-terminus Huntingtin exon 1 fragment harboring pathological (109Q) polyglutamine repeats, fused with eCFP or eYFP; assay: FRET or BRET; frequency-domain FLIM-FRET (phasor trajectory) in living Neuro2a cells co-expressing 109QHtt-eCFP and 109QHtt-eYFP; aggregated fraction; cells treated with 8R10Q
[2] = biological target: N-terminus Huntingtin exon 1 fragment harboring pathological (109Q) polyglutamine repeats, fused with eCFP or eYFP; assay: FRET or BRET; frequency-domain FLIM-FRET (phasor trajectory) in living Neuro2a cells co-expressing eCFP (donor) and eYFP (acceptor) fusions; soluble fraction; no peptide
[3] = biological target: N-terminus Huntingtin exon 1 fragment harboring pathological (109Q) polyglutamine repeats, fused with eCFP or eYFP; assay: FRET or BRET; frequency-domain FLIM-FRET (phasor trajectory) in living Neuro2a cells co-expressing 109QHtt-eCFP and 109QHtt-eYFP; aggregated fraction; no peptide
[4] = biological target: N-terminus Huntingtin exon 1 fragment harboring pathological (109Q) polyglutamine repeats, fused with eCFP or eYFP; assay: FRET or BRET; frequency-domain FLIM-FRET (phasor trajectory) in living Neuro2a cells co-expressing 109QHtt-eCFP and 109QHtt-eYFP; soluble fraction; cells treated with 8R10Q

Chain of N-terminus Huntingtin exon 1 fragment harboring pathological (109Q) polyglutamine repeats, fused with eCFP or eYFP (P42858 whole entry, change not shown, the tested form may be a part): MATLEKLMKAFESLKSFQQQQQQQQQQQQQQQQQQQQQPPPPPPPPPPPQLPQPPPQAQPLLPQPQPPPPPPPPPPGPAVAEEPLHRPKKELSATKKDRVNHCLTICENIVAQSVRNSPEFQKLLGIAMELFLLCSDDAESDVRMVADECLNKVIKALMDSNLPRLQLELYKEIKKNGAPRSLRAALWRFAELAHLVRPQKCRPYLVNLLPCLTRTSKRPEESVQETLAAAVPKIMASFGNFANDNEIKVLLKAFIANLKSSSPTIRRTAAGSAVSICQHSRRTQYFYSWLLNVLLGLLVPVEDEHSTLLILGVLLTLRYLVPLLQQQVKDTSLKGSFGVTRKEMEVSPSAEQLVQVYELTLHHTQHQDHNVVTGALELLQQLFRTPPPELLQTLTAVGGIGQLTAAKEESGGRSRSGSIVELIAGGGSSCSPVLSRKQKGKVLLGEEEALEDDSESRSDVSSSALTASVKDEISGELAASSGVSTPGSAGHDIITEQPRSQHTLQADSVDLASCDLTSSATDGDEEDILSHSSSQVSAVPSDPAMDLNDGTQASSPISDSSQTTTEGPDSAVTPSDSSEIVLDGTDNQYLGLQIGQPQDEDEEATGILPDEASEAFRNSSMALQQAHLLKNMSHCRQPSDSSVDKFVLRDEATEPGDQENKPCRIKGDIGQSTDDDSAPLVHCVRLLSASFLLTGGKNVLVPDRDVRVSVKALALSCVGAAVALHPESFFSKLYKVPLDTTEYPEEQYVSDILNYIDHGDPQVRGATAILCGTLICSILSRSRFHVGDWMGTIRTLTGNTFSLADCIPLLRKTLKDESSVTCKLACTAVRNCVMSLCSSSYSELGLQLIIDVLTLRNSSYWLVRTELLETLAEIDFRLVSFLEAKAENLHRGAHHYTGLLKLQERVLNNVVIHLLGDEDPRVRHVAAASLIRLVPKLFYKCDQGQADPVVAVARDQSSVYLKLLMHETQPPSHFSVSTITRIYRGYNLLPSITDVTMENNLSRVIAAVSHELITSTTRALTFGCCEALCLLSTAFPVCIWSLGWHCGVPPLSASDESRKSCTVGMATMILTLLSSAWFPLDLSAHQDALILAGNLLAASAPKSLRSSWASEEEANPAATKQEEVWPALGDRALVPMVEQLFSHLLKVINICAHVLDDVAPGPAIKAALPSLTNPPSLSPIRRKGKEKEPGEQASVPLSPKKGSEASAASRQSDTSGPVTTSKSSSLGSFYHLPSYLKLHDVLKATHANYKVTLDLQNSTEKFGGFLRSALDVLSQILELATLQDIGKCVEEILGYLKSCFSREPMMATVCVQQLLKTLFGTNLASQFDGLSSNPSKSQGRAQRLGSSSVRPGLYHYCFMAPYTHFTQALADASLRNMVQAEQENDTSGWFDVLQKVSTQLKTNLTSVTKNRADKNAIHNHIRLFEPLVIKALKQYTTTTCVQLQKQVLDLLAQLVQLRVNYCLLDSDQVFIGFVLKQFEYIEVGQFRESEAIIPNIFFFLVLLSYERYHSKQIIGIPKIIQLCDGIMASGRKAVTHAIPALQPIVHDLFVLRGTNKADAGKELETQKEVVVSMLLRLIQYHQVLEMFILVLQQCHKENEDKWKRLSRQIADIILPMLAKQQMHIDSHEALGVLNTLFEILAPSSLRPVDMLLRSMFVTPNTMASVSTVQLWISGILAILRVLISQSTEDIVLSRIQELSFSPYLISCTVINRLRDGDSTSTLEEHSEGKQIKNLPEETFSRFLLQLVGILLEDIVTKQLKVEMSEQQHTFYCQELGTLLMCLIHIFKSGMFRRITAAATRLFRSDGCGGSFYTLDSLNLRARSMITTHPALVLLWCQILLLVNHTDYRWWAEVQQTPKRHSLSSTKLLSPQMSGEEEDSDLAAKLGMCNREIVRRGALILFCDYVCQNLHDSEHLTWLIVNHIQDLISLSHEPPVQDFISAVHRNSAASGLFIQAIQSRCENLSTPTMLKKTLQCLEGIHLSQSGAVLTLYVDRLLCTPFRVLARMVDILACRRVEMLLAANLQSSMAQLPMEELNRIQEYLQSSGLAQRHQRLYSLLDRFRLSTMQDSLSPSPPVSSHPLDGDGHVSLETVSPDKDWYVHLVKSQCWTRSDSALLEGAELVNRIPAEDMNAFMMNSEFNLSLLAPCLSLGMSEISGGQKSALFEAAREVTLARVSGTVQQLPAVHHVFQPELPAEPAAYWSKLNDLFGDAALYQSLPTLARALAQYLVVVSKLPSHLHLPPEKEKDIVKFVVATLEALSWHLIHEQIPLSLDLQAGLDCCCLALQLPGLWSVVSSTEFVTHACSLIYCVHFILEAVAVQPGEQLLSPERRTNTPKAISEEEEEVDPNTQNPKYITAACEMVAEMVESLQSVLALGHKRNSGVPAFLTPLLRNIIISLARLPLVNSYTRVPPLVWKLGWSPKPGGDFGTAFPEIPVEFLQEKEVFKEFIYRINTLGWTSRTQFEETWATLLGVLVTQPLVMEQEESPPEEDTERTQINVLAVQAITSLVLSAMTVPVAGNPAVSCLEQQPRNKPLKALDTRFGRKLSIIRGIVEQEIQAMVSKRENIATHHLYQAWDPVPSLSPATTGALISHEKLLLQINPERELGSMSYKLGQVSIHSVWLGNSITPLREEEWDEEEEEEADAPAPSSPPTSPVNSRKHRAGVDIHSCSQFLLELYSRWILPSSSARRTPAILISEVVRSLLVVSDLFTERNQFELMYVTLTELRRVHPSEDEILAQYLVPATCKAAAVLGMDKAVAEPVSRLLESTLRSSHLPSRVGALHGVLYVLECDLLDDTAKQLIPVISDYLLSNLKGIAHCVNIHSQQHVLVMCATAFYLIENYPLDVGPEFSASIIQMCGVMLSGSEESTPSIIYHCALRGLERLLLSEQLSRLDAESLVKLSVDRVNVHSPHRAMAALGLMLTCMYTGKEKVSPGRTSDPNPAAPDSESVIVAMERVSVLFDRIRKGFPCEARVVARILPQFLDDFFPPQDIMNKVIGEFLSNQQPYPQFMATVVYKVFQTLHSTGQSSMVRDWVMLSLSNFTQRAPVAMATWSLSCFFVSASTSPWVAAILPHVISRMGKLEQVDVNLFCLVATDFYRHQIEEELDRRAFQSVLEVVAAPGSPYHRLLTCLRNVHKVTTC

Substance: N-terminus Huntingtin exon 1 fragment harboring pathological (109Q) polyglutamine repeats, fused with eCFP or eYFP (domain or fragment)
- FRET efficiency with 8R10Q [1]: 16.4%
- FRET efficiency [2]: 8.7%
- FRET efficiency [3]: 41.8%
- FRET efficiency with 8R10Q [4]: 4.5%
